Experiments:
OCCCO = experiment: purified protein; type: biochemical, Enterococcus faecalis; settings: NAD+ close to saturation, 37 °C, pH of assay not told, kcat printed as Vmax per enzyme molecule, closely corresponding to kcat
[1] = test system: NC(=O)c1ccc[n+]([C@@H]2O[C@H](COP(=O)(O)OP(=O)(O)OC[C@H]3O[C@@H](n4cnc5c(N)ncnc54)[C@H](O)[C@@H]3O)[C@@H](O)[C@H]2O)c1; experiment: purified protein; type: biochemical, Enterococcus faecalis; settings: 1,3-propanediol oxidation direction, 37 °C, 1,3-propanediol as co-substrate, its concentration and pH of assay not told, varied: cofactor

## 1,3-propanediol dehydrogenase (1,3-PD), rumen plasmid-encoded (Enterococcus faecalis)
OCCCO
  Km: 17 ± 6 mM
  kcat: 0.183 ± 0.017 s⁻¹
[1]
  Km: 0.25 ± 0.04 mM
